# Data reported in patent US20140286957A1 (Teva, published 2014).
# Substitutions are numbered along the chain they refer to. Numbers in names are those of the source. Read-outs that look alike come from different tables or passages of the source.
# T1: Human CD1d on cells (human, UniProt P15813 20-335)
# T1 sequence (looked up): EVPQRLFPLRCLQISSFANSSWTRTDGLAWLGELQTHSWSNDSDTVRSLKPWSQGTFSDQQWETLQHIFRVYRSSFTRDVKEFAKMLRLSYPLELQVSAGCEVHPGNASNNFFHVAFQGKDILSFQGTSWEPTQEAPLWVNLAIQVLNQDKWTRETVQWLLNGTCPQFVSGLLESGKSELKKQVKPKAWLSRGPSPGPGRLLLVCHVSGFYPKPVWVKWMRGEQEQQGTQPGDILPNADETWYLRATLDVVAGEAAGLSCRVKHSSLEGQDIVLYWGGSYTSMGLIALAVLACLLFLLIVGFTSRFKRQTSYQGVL
# B1: 401.11.152 (antibody, IgG4, V domains shown)
# VH: EVQLVESGGGLVQPGRSLRLSCAASGFTFDDYAMHWVRQAPGKGLEWVATIIWNSAIIGYADSVKGRFIVSRDNAKNSLYLQMNSLRAEDTALYYCAKDMCSSSGCPDGYFDSWGQGTLVTVSS
# VL: DIQMTQSPSSVSASVGDRVTITCRASQHISSWLAWYQQKPGKAPKLLIYAASSLQSGVSSRFSGSGSGTDFTLTISSLQPEDFATYYCQQANRFPLTFGGGTKLEIKR
# notes: IgG4 (S228P)
# B2: 401.11.19 (antibody, V domains shown)
# VH: B1 VH with E1Q, E6G, Q13K, T91M
# VL: DIQMTQSPSSVSASVGDRVTITCRASQHISSWLAWYQQKPGKAPKLLIYAASSLQSGVSSRFSGSGSGTDFTLTISSLQPEDFATYYCQQANRFPLTFGGGTKLEIK
# B3: 401.11.178 (antibody, V domains shown)
# VH: B1 VH with E1Q, E6G, Q13K, M100L, S104G
# VL: B2 VL with S59P
# B4: 401.11.167 (antibody, IgG4, V domains shown)
# VH: B1 VH with S104G
# VL: B1 VL with K45N, S59P
# notes: IgG4 (S228P)
# B5: 401.11.21 (antibody, V domains shown)
# VH: B1 VH with Q13K, T91M
# VL: B2 VL
# B6: 401.11.156 (antibody, IgG4, V domains shown)
# VH: B1 VH with E1Q, E6G, Q13K, S104G
# VL: B1 VL
# notes: IgG4 (S228P)
# B7: 401.11.157 (antibody, IgG4, V domains shown)
# VH: B1 VH with E1Q, E6G, Q13K, S104G
# VL: B1 VL with K45N, S59P
# notes: IgG4 (S228P)
# B8: 401.11.22 (antibody, V domains shown)
# VH: B1 VH with T91M
# VL: B2 VL
# B9: 401.11.18 (antibody, V domains shown)
# VH: B1 VH with E1Q, E6G, Q13K
# VL: B2 VL with K45N
# B10: 401.11.20 (antibody, V domains shown)
# VH: B1 VH with E1Q, E6G, Q13K, T91M
# VL: B2 VL with K45N, S59P
# B11: 401.11.166 (antibody, IgG4, V domains shown)
# VH: B1 VH with S104G
# VL: B1 VL
# notes: IgG4 (S228P)
# B12: 401.11.160 (antibody, IgG4, V domains shown)
# VH: B1 VH with T91M, S104G
# VL: B1 VL with K45N, S59P
# notes: IgG4 (S228P)
# B13: 401.11.177 (antibody, V domains shown)
# VH: B1 VH with E1Q, E6G, Q13K, M100I, S104G
# VL: B2 VL with S59P
# B14: 401.11.161 (antibody, IgG4, V domains shown)
# VH: B1 VH with T91M, S104G
# VL: B1 VL with S59P
# notes: IgG4 (S228P)
# B15: 401.11.155 (antibody, IgG4, V domains shown)
# VH: B1 VH with T91M
# VL: B1 VL with S59P
# notes: IgG4 (S228P)
# B16: 401.11.179 (antibody, IgG4, V domains shown)
# VH: B1 VH with E1Q, E6G, Q13K, S104G, D108E
# VL: B1 VL with S59P
# notes: IgG4 (S228P)
# B17: 401.11.15 (antibody, V domains shown)
# VH: B1 VH with Q13K, T91M
# VL: B2 VL with K45N
# B18: 401.11.16 (antibody, V domains shown)
# VH: B1 VH with T91M
# VL: B2 VL with K45N
# B19: 401.11.154 (antibody, IgG4, V domains shown)
# VH: B1 VH with E1Q, E6G, Q13K
# VL: B1 VL with S59P
# notes: IgG4 (S228P)
# Experiments:
# Human CD1d on cells [1] = target: T1, Human CD1d on cells; test: cell-based or functional assay
# Human CD1d/β2M [2] = target: T2, Human CD1d/β2M (human, UniProt P15813 20-301; P61769 21-119); test: SPR
# T2 construct: also called hCD1d; recombinant human CD1d
# Human CD1d/β2M [3] = target: T2, Human CD1d/β2M; test: SPR, transfection supernatant
# Human CD1d on cells [4] = target: T1, Human CD1d on cells; test: cell-based or functional assay; remark: listed apart in the source
# Human CD1d on cells [5] = target: T1, Human CD1d on cells; test: cell-based or functional assay; remark: listed apart in the source
# Human CD1d on cells [6] = target: T1, Human CD1d on cells; test: cell-based or functional assay; remark: listed apart in the source
# Human CD1d on cells [7] = target: T1, Human CD1d on cells; test: cell-based or functional assay; remark: listed apart in the source
binder,measurement,setting,value
B1,NKT IL-4 EC50 (moDC),Human CD1d on cells [1],10.2 ng/mL
same,NKT IL-13 EC50 (moDC),Human CD1d on cells [1],78.5 ng/mL
same,Kd,Human CD1d/β2M [2],2.83 nM
B2,Kd,Human CD1d/β2M [3],0.667 nM
B3,NKT IFN-γ EC50 (moDC),Human CD1d on cells [4],15.1 ng/mL
same,NKT IL-4 EC50 (moDC),Human CD1d on cells [4],0.969 ng/mL
same,NKT IL-5 EC50 (moDC),Human CD1d on cells [4],1.38 ng/mL
same,NKT IL-13 EC50 (moDC),Human CD1d on cells [4],1.76 ng/mL
same,Kd,Human CD1d/β2M [2],0.468 nM
B4,Kd,Human CD1d/β2M [2],0.17 nM
same,NKT IFN-γ EC50 (THP-1),Human CD1d on cells [5],6.51 ng/mL
same,NKT IL-4 EC50 (THP-1),Human CD1d on cells [5],2.89 ng/mL
same,NKT IL-5 EC50 (THP-1),Human CD1d on cells [5],4.98 ng/mL
same,NKT IL-13 EC50 (THP-1),Human CD1d on cells [5],7.46 ng/mL
same,NKT TNF EC50 (THP-1),Human CD1d on cells [5],4 ng/mL
B5,Kd,Human CD1d/β2M [3],0.951 nM
B6,NKT IL-4 EC50 (moDC),Human CD1d on cells [1],1.95 ng/mL
same,NKT IL-13 EC50 (moDC),Human CD1d on cells [1],5.22 ng/mL
same,"fold improvement against 401.11 (IFN-γ, moDC)",Human CD1d on cells [6],~5.1 fold
same,NKT IFN-γ EC50 (moDC),Human CD1d on cells [7],7.76 ng/mL
same,NKT IL-4 EC50 (moDC),Human CD1d on cells [7],2.72 ng/mL
same,NKT IL-5 EC50 (moDC),Human CD1d on cells [7],5.86 ng/mL
same,NKT IL-13 EC50 (moDC),Human CD1d on cells [7],9.53 ng/mL
same,NKT TNF EC50 (moDC),Human CD1d on cells [7],4.51 ng/mL
same,Kd,Human CD1d/β2M [2],0.223 nM
same,NKT IFN-γ EC50 (THP-1),Human CD1d on cells [5],5.81 ng/mL
same,NKT IL-4 EC50 (THP-1),Human CD1d on cells [5],1.99 ng/mL
same,NKT IL-5 EC50 (THP-1),Human CD1d on cells [5],4.45 ng/mL
same,NKT IL-13 EC50 (THP-1),Human CD1d on cells [5],6.91 ng/mL
same,NKT TNF EC50 (THP-1),Human CD1d on cells [5],3.85 ng/mL
B7,NKT IL-4 EC50 (moDC),Human CD1d on cells [1],0.799 ng/mL
same,NKT IL-13 EC50 (moDC),Human CD1d on cells [1],3.87 ng/mL
same,NKT IFN-γ EC50 (moDC),Human CD1d on cells [7],9.11 ng/mL
same,NKT IL-4 EC50 (moDC),Human CD1d on cells [7],3.44 ng/mL
same,NKT IL-5 EC50 (moDC),Human CD1d on cells [7],8.49 ng/mL
same,NKT IL-13 EC50 (moDC),Human CD1d on cells [7],20.6 ng/mL
same,NKT TNF EC50 (moDC),Human CD1d on cells [7],5.59 ng/mL
same,Kd,Human CD1d/β2M [2],0.173 nM
same,NKT IFN-γ EC50 (THP-1),Human CD1d on cells [5],5.45 ng/mL
same,NKT IL-4 EC50 (THP-1),Human CD1d on cells [5],1.81 ng/mL
same,NKT IL-5 EC50 (THP-1),Human CD1d on cells [5],4.48 ng/mL
same,NKT IL-13 EC50 (THP-1),Human CD1d on cells [5],6.98 ng/mL
same,NKT TNF EC50 (THP-1),Human CD1d on cells [5],3.54 ng/mL
B8,Kd,Human CD1d/β2M [3],0.754 nM
B9,Kd,Human CD1d/β2M [3],9.97 nM
B10,Kd,Human CD1d/β2M [3],0.977 nM
B11,Kd,Human CD1d/β2M [2],0.173 nM
same,NKT IFN-γ EC50 (THP-1),Human CD1d on cells [5],6.98 ng/mL
same,NKT IL-4 EC50 (THP-1),Human CD1d on cells [5],2.75 ng/mL
same,NKT IL-5 EC50 (THP-1),Human CD1d on cells [5],5.38 ng/mL
same,NKT IL-13 EC50 (THP-1),Human CD1d on cells [5],7.25 ng/mL
same,NKT TNF EC50 (THP-1),Human CD1d on cells [5],4.02 ng/mL
B12,NKT IL-4 EC50 (moDC),Human CD1d on cells [1],1.56 ng/mL
same,NKT IL-13 EC50 (moDC),Human CD1d on cells [1],6.52 ng/mL
same,Kd,Human CD1d/β2M [2],0.109 nM
B13,NKT IFN-γ EC50 (moDC),Human CD1d on cells [4],7.56 ng/mL
same,NKT IL-4 EC50 (moDC),Human CD1d on cells [4],0.731 ng/mL
same,NKT IL-5 EC50 (moDC),Human CD1d on cells [4],1.4 ng/mL
same,NKT IL-13 EC50 (moDC),Human CD1d on cells [4],1.27 ng/mL
same,Kd,Human CD1d/β2M [2],0.507 nM
B14,NKT IL-4 EC50 (moDC),Human CD1d on cells [1],5.24 ng/mL
same,NKT IL-13 EC50 (moDC),Human CD1d on cells [1],8.38 ng/mL
same,Kd,Human CD1d/β2M [2],0.255 nM
B15,NKT IL-4 EC50 (moDC),Human CD1d on cells [1],27.6 ng/mL
same,NKT IL-13 EC50 (moDC),Human CD1d on cells [1],74.7 ng/mL
same,Kd,Human CD1d/β2M [2],2.42 nM
B16,NKT IFN-γ EC50 (moDC),Human CD1d on cells [4],30.2 ng/mL
same,NKT IL-4 EC50 (moDC),Human CD1d on cells [4],0.73 ng/mL
same,NKT IL-5 EC50 (moDC),Human CD1d on cells [4],2.1 ng/mL
same,NKT IL-13 EC50 (moDC),Human CD1d on cells [4],2.43 ng/mL
same,Kd,Human CD1d/β2M [2],0.274 nM
B17,Kd,Human CD1d/β2M [3],0.507 nM
B18,binding result,Human CD1d/β2M [3],no binding
B19,NKT IL-4 EC50 (moDC),Human CD1d on cells [1],4.16 ng/mL
same,NKT IL-13 EC50 (moDC),Human CD1d on cells [1],17.7 ng/mL
same,Kd,Human CD1d/β2M [2],1.77 nM
